Patent US8304388B2, “Imaging agents” (GE Healthcare Limited, priority 2006, dated 2012)
Bridges are numbered along the chain shown (N, C = ends). Where no end group is shown, it is not given here. 99mTc‑Chelate II = tetraamine chelate labelled with 99mTc, on the N-terminus

How the values were obtained:
collagen type I [1] = target: collagen type I (Homo sapiens, UniProt P02452+P08123); test: In vitro binding to collagen type I coated plate
Method: A Maxisorp plate was incubated overnight at 4° C. with 50 μL or 100 μL 0.1 mg/mL collagen type I. All solutions were removed from the wells using a pipette. Wells were washed twice with 200 μL PBS, and then incubated with 150 μL PBS containing 0.1% BSA for 30 minutes at room temperature. Wells were washed five times with 200 μL PBS, and then 90 μL PBS was added to each well. 10 μL of neat (and two-fold serially diluted in PBS) Imaging Agent 1 was added to the wells in quadruplicate. The plate was sealed and incubated for 1 hour at 37° C.
The wells were washed seven times with ice-cold PBS (200 μL); and then the wells were transferred to a glass vial and counted (measured) for ^99mTc-activity using a Wallac counter for a 60 s count for each sample.
FIG. 1 illustrates binding of Imaging Agent 1 to collagen type I coated wells from one experiment.

collagen type I [2] = test: saturation binding of 99mTc-labelled peptide to collagen type I coated Maxisorp wells, one-site hyperbola fit

Chain of collagen type I (Homo sapiens, UniProt P02452+P08123) (P02452 162-1218 limits assumed): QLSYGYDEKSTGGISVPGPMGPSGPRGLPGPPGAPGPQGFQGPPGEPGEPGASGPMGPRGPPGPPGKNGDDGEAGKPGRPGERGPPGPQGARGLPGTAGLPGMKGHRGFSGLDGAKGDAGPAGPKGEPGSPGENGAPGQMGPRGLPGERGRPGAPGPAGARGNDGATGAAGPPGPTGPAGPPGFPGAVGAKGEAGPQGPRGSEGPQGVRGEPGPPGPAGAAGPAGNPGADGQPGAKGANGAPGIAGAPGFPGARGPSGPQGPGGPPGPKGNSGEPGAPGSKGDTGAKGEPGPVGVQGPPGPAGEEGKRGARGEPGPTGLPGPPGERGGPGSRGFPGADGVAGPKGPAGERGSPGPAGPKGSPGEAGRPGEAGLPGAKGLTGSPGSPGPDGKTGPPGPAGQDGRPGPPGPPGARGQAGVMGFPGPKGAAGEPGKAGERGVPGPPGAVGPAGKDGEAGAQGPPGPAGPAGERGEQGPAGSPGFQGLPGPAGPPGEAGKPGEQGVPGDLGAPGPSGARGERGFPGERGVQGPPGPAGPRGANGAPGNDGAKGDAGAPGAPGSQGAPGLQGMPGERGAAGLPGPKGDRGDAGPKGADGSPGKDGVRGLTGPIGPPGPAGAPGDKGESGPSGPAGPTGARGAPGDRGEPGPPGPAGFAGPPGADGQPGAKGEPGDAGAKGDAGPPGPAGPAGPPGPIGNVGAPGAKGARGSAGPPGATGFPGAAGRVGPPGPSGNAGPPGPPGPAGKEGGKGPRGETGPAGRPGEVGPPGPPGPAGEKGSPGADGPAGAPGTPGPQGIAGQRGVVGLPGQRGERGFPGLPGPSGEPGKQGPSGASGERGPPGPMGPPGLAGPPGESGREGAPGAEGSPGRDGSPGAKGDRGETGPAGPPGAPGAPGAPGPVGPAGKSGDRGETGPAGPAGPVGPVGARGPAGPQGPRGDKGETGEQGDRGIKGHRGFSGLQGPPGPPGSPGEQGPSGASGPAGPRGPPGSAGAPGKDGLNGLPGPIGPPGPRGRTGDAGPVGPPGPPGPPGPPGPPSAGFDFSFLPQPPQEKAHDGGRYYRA
Chain of collagen type I (Homo sapiens, UniProt P02452+P08123) (P08123 80-1119 limits assumed): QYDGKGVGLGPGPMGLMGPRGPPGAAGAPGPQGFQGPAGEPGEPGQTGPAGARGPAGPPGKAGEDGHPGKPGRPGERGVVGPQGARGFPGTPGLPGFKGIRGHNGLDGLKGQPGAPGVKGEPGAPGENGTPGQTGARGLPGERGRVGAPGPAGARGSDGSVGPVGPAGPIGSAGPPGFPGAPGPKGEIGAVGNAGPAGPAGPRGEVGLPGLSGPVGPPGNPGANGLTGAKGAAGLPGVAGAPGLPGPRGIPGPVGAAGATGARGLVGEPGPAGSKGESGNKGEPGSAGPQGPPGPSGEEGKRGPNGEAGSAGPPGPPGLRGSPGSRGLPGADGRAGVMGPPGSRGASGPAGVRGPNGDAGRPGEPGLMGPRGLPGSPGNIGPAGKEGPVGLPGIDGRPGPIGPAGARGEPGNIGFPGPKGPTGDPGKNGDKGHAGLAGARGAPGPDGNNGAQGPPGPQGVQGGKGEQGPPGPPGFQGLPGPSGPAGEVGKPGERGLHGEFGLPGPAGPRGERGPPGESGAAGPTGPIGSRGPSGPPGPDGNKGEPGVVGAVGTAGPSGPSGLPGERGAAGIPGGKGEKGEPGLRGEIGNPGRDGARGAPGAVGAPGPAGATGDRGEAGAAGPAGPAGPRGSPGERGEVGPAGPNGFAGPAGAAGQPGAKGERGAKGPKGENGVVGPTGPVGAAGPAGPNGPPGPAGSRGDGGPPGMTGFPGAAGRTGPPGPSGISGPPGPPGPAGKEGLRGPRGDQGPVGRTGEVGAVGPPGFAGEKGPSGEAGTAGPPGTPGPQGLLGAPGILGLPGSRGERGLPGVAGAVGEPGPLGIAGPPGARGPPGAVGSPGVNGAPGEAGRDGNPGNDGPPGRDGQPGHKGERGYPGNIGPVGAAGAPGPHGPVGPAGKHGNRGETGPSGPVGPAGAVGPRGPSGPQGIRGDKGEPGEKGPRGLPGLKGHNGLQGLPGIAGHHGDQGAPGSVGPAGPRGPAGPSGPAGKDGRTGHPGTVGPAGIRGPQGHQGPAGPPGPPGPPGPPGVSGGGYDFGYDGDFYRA

Row | Bmax (collagen type I [2]) | Kd (collagen type I [2]) | Molecule | binding to collagen in vitro (collagen type I [1])
1 |  |  | ^123I-labelled Ac-CKELNVLYTC-NH2 (disulfide 1-10; also: 123I-labelled) [Imaging Agent 36] | bind with high affinity to collagen in vitro
2 |  |  | ^123I-labelled Ac-KELNLVYT-NH2 (also: 123I-labelled) [Imaging Agent 29] | bind with high affinity to collagen in vitro
3 |  |  | ^123I-labelled KELNVLYT-NH2 (also: 123I-labelled) [Imaging Agent 35] | bind with high affinity to collagen in vitro
4 | 1070 attomoles | 194 nM | {99mTc‑Chelate II}-ANAALKAGELYKCILY-NH2 (also: 99mTc complex) [Imaging Agent 1: [99mTc-Chelate II]-…-NH2] | 
